Test results published in patent US20090136507A1 (published 2009).

Assays:
Experiment in all cases: yeast two-hybrid screens, LRP5 cytoplasmic domain bait against brain, HeLa and TE85 prey cDNA libraries
alpha-actinin (ACTN1) = target: T1, alpha-actinin (ACTN1) (Homo sapiens (Human), UniProt P12814 1-892, limits assumed)
T1 construct: Yeast two-hybrid prey; also called α-actinin
Source text: (§1) In order to identify cytoplasmic Zmax1 (LRP5) signaling pathways, the cytoplasmic domain of Zmax1 (LRP5) was subcloned into two bait vectors. The first vector was pDBleu, which was used to screen a brain, and Hela prey cDNA library cloned into the vector pPC86 (Clontech). The second bait vector used was pDBtrp, which was used to screen a cDNA prey library derived from the TE85 osteosarcoma cell line in vector pOP46. Another suitable vector which is widely available, is p86 (Gibco, Iest™ System). Standard techniques known to those skilled in the art were used as described in Fields and Song, 1989 Nature 340: 245-246; U.S. Pat. No. 5,283,173 by Fields and Song; Johnston, 1987 Microbiol. Rev. 51: 458-476; Keegan et al., 1986 Science 231: 699-704; Durfee et al., 1993 Genes Dev. 7: 555-569; Chien et al., 1991 Proc. Natl. Acad. Sci. USA 88: 9578-9582; Fields et al., 1994 Trends in Genetics 10: 286-292; and Gyuris et al., 1993 Cell 75: 791-803. The bait construct and prey cDNA libraries were transformed into yeast using standard procedures.
(§2) The frozen prey library was thawed, and the yeast cells reactivated by growing them in 150 ml YEPD medium with 2% glucose for 2 hrs at 30° C. A filter unit was sterilized with 70% ethanol and washed with sterile water to remove the ethanol. The cell densities of both bait and prey cultures were measured by determining the OD at 600 nm. An appropriate volume of yeast cells that corresponded to a cell number of 1 ml of OD 600=4 of each yeast strain, bait and prey (library) was placed in a 50 ml Falcon tube. The mixture was then filtered through the sterilized filter unit. The filter was then transferred onto a prewarmed YEPD agar plate with the cell side up, removing all air bubbles underneath the filter. Plates were then incubated at 30° C. for 6 hrs. One filter was transferred into a 50 ml Falcon tube, and 10 ml of SD with 2% Glucose was added; cells were resuspended by vortexing for 10 sec. […]

Axin (AXIN) = target: T2, Axin (AXIN) (Homo sapiens (Human), UniProt O15169 1-862, limits assumed)
T2 construct: Yeast two-hybrid prey
T2 sequence (O15169 other isoform, or with tags, fused parts or gaps limits assumed): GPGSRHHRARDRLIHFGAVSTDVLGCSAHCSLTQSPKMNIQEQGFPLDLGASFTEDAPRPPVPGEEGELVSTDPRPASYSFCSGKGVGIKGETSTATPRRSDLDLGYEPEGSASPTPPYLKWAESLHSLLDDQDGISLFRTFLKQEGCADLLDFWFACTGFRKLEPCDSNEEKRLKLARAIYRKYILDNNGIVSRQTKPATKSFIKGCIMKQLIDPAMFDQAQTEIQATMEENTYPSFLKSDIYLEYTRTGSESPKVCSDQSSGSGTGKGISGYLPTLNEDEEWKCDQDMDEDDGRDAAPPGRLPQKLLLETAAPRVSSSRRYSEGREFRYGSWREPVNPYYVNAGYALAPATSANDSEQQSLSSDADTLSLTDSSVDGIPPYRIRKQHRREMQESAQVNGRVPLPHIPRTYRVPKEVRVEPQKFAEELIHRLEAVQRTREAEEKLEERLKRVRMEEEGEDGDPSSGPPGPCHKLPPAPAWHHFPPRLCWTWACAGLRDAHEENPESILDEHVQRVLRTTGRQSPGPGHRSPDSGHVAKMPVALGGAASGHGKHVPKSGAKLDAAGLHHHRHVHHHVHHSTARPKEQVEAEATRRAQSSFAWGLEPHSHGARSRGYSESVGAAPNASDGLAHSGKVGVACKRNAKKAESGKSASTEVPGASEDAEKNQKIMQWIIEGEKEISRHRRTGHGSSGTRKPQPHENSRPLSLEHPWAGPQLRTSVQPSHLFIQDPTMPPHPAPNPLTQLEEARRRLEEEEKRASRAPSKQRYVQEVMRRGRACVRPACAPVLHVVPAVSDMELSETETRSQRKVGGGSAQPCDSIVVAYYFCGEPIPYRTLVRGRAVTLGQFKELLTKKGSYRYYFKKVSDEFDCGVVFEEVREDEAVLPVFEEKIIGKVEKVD
Source text: as §1, §2

Zyxin (ZYX) = target: T3, Zyxin (ZYX) (Homo sapiens (Human), UniProt Q15942 2-572, limits assumed)
T3 construct: Yeast two-hybrid prey
T3 sequence: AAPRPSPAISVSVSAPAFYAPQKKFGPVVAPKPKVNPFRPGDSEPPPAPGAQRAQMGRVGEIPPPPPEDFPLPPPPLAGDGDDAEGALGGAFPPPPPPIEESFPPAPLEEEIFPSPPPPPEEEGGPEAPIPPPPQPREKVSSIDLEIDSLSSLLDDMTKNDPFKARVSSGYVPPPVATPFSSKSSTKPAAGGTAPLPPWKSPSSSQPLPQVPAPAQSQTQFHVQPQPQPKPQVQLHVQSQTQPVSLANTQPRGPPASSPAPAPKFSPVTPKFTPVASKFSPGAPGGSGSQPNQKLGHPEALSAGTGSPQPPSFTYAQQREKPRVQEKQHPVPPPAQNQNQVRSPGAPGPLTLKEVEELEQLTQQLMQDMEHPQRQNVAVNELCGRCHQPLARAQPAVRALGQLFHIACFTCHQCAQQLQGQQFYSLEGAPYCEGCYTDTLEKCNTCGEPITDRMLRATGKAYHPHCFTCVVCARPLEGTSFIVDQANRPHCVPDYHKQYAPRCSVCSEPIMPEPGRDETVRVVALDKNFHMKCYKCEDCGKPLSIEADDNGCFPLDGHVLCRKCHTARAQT
Source text: as §1, §2

T1 sequence (P12814 whole entry): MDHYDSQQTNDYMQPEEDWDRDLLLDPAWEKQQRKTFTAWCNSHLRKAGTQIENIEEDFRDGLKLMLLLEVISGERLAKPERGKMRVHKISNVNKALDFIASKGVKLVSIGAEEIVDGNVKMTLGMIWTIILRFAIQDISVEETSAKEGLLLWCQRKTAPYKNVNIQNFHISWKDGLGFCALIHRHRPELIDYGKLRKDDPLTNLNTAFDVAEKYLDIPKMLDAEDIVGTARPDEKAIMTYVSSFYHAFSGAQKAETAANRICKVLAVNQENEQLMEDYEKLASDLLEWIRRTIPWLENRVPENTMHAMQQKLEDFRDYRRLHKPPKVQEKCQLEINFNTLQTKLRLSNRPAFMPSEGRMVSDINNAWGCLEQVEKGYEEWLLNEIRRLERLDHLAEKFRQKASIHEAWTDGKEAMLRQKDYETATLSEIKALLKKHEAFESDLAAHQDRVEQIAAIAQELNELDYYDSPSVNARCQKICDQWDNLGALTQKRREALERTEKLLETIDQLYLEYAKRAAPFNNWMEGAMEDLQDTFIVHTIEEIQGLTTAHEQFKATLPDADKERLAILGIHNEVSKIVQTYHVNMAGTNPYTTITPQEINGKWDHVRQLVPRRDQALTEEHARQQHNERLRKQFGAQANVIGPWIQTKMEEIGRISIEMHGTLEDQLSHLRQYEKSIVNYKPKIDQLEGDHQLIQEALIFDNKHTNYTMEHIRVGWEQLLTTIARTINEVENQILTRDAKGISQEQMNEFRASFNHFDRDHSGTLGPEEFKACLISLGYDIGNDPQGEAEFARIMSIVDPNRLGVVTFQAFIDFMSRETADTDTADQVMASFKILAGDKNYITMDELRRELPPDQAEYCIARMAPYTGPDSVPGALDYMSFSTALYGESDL

binding result (alpha-actinin (ACTN1)): binds
binding result (Axin (AXIN)): binds
binding result (Zyxin (ZYX)): binds
B1: Zmax1 (LRP5) cytoplasmic domain bait (entire cytoplasmic domain and a portion of the transmembrane domain) (receptor)
chain: RVVCQRYAGANGPFPHEYVSGTPHVPLNFIAPGGSQHGPFTGIACGKSMMSSVSLMGGRGGVPLYDRNHVTGASSSSSSSTKATLYPPILNPPPSPATDPSLYNMDMFYSSNIPATVRPYRPYIIRGMAPPTTPCSTDVCDSDYSASRWKASKYYLDLNSDSDPYPPPPTPHSQYLSAEDSCPPSPATERSYFHLFPPPPSPCTDSS
notes: Yeast two-hybrid bait; also called cytoplasmic domain of Zmax1 (LRP5); cytoplasmic domain of LRP5
